Positions count from the first letter of the chain named.
T1: Pab-Pol D (Pyrococcus abyssi, UniProt Q9V2F4)
T1 sequence (Q9V2F4 1-954): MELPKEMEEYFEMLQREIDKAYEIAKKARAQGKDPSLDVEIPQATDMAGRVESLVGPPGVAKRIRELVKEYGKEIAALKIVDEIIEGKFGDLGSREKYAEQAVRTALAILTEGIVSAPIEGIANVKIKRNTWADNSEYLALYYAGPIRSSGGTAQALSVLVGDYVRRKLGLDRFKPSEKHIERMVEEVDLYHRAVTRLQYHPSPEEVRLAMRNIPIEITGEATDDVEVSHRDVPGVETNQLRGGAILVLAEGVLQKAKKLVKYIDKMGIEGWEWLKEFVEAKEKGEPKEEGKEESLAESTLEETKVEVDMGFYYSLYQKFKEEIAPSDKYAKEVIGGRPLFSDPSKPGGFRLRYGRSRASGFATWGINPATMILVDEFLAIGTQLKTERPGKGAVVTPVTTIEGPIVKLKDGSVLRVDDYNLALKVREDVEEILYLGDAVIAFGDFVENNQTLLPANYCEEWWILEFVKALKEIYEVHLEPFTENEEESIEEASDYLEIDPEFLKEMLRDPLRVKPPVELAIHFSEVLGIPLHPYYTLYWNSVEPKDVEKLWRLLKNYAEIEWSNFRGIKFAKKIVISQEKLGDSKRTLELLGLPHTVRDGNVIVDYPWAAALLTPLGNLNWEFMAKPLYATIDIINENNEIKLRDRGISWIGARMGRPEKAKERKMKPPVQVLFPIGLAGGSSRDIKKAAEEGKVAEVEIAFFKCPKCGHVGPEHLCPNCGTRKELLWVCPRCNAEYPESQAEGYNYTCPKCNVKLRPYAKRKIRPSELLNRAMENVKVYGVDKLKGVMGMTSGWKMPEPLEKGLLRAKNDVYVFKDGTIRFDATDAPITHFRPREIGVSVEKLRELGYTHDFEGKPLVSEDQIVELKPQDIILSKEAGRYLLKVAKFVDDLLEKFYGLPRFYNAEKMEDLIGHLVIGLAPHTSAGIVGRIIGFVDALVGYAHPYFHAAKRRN
T1 sequence (Q9V2F4 1140-1455): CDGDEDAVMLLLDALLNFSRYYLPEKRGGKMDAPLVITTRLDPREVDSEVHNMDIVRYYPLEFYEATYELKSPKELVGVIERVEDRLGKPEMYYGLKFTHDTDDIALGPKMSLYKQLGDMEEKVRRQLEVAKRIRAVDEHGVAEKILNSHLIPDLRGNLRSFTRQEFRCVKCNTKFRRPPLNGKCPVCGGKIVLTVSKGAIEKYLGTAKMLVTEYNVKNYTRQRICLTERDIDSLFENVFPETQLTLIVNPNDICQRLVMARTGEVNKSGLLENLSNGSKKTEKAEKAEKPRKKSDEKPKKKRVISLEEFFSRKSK
T1 sequence (Q9V2F3 1-619 partner): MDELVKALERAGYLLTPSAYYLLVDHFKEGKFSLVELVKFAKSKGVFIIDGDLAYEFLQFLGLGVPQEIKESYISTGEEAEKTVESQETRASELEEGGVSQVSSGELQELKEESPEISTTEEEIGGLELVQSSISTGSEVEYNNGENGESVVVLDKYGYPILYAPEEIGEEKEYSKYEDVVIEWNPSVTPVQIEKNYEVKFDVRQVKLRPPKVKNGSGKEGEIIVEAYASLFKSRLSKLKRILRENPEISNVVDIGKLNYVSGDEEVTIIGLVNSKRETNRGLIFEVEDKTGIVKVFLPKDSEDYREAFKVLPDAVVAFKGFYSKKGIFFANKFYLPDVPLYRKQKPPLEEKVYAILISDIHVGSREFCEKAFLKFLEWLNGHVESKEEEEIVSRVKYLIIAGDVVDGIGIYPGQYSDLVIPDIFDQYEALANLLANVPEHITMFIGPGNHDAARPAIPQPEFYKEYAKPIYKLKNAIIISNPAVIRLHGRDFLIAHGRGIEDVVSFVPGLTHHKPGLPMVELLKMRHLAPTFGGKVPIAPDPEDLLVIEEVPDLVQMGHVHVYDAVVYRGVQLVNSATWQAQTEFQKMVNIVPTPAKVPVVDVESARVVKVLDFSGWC

B1: single strand, X=T (ssDNA)
DNA: TTTCTGGTTCCAGCTGGACCATTCGCCTATAGGACCTATT
B2: primer-template -1, X=U (dsDNA)
DNA 1: B1 DNA with T9U
DNA 2: AATAGGTCCTATAGGCGAATGGTCCAGCTGGAA
modifications: deoxyuridine at template position 9
B3: primer-template +1, X=U (dsDNA)
DNA 1: B1 DNA with T9U
DNA 2: AATAGGTCCTATAGGCGAATGGTCCAGCTGG
modifications: deoxyuridine at template position 9
B4: primer-template -1, X=T (dsDNA)
DNA 1: B1 DNA
DNA 2: B2 DNA 2
B5: single strand, X=U (ssDNA)
DNA: B1 DNA with T9U
modifications: deoxyuridine at position 9
B6: primer-template +1, X=T (dsDNA)
DNA 1: B1 DNA
DNA 2: B3 DNA 2

Target: T1, Pab-Pol D
Experiment: primer extension with a single dNTP, denaturing gel
Type: biochemical
Details: exo+ enzyme; template U at +1; otherwise same

Q: Which “primer extension with a single dNTP, denaturing gel” value does the source give for `Nc1ncnc2c1ncn2[C@H]1C[C@H](O)[C@@H](COP(=O)(O)OP(=O)(O)OP(=O)(O)O)O1` [dATP] here?
A: Pab-Pol D exo^+ only incorporated adenine opposite uracil

Target: Pfu-Pol D (family-D DNA polymerase, DP1 small + DP2 large subunits) (Pyrococcus furiosus, UniProt P81409;P81412 1-1263;1-613)
Sequence (P81409 whole entry, chain 1 of 2): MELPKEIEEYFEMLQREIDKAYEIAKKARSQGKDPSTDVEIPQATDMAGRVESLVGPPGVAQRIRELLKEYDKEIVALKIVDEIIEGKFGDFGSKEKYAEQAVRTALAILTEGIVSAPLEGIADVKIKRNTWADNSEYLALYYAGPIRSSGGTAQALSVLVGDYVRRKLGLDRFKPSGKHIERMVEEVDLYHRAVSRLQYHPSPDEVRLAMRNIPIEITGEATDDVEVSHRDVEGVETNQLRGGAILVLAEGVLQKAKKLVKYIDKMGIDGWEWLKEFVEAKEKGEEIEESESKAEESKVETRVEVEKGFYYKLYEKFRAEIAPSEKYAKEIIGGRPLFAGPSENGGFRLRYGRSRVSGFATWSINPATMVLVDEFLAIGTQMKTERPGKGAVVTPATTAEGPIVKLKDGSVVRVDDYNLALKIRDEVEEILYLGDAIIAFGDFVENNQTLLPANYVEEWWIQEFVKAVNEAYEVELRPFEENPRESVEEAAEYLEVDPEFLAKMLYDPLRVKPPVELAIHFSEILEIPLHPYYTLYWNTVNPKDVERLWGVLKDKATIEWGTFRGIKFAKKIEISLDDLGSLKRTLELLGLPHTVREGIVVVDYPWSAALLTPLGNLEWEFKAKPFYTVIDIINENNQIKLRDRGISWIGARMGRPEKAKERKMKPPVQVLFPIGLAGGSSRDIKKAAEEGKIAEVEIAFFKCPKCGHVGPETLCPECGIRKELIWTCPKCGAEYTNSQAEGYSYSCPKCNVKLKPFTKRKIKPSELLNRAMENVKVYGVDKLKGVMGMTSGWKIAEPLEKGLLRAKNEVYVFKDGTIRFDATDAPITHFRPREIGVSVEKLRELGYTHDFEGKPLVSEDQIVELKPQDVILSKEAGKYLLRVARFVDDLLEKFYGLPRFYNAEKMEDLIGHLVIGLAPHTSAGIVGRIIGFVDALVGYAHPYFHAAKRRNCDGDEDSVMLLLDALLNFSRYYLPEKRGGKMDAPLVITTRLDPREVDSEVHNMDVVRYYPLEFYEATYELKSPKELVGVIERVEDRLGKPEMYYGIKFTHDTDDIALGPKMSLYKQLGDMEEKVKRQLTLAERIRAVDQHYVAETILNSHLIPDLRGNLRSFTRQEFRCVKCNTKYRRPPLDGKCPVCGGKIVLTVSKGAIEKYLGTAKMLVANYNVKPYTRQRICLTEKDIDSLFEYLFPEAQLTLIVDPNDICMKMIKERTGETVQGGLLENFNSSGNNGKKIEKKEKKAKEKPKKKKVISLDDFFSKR
Sequence (P81412 whole entry, chain 2 of 2): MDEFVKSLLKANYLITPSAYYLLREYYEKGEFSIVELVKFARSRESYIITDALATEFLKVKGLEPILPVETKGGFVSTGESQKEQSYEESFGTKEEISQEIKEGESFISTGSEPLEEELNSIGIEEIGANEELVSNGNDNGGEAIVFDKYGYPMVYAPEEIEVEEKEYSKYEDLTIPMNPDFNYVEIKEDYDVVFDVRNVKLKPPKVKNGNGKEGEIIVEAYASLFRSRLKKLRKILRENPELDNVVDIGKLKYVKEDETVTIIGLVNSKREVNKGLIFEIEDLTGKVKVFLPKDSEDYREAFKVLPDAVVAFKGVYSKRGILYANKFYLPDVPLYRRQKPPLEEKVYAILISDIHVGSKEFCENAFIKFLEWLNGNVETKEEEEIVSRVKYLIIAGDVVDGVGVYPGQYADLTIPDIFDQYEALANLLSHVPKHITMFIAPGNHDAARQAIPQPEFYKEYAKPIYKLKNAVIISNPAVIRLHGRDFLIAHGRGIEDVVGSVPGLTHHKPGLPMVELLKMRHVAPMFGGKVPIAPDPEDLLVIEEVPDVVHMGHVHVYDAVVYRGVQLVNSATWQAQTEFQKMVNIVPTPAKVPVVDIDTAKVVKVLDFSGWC
Experiment: fluorescence anisotropy
Details: not given

Q: Which Kd does the source give for B1 here?
A: 6 ± 1.6 nM

Q: For B2, which Kd is on record?
A: 5.2 ± 1.3 nM

Q: Which Kd does the source give for B3 here?
A: 5.8 ± 0.4 nM

Q: Which Kd does the source give for B4 here?
A: 9.3 ± 0.6 nM

Q: With B5 as the molecule, how does the Kd read?
A: 3.4 ± 0.3 nM

Q: How did the Kd turn out when B6 was run?
A: 9.1 ± 1.5 nM

From publication PMC3627576 (Nucleic Acids Research, 2013)
